The supplement of paper PMC9112550, “Optimization of the antimicrobial peptide Bac7 by deep mutational scanning” (BMC Biology, 2022)

system: Escherichia coli TOP10; assay: shrunken log2 fold change of peptide-encoding DNA abundance (4.5 h post-induction vs induction); higher = less antimicrobial activity (less host growth inhibition); details: time post-induction: 4.5 h; library: site-saturation at positions 5, 18, 19, 20
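Further: peptides expressed intracellularly from a pBAD plasmid library in pooled LB shake-flask culture, induced with 0.3% L-arabinose, DNA abundance read by NGS, three biological replicates, DESeq2 with apeglm shrinkage.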

Row | Sequence | shrunken log2 fold change
1 | RRIRERPPRLPRPRPRPWIAPRP | -0.0555
2 | RRIRFRPPRLPRPRPRPADLPRP | -0.294
3 | RRIRGRPPRLPRPRPRPAQEPRP | 0.547
4 | RRIRTRPPRLPRPRPRPQWCPRP | -0.0353
5 | RRIRWRPPRLPRPRPRPPQVPRP | 0.35
6 | RRIRWRPPRLPRPRPRPTCLPRP | 0.324
7 | RRIRLRPPRLPRPRPRPGVKPRP | 0.108
8 | RRIRQRPPRLPRPRPRPIWIPRP | -0.206
9 | RRIRQRPPRLPRPRPRPAERPRP | 0.179
10 | RRIRRRPPRLPRPRPRPNMPPRP | -0.342
11 | RRIRKRPPRLPRPRPRPCNPPRP | -0.00652
12 | RRIRGRPPRLPRPRPRPDENPRP | 0.987
13 | RRIRYRPPRLPRPRPRPKWLPRP | -0.221
14 | RRIRIRPPRLPRPRPRPLSVPRP | -0.254
15 | RRIRPRPPRLPRPRPRPNHNPRP | -0.755
16 | RRIRDRPPRLPRPRPRPDIQPRP | -0.228
17 | RRIRTRPPRLPRPRPRPIFVPRP | 0.144
18 | RRIRRRPPRLPRPRPRPTDIPRP | -0.771
19 | RRIRNRPPRLPRPRPRPVGSPRP | 0.0409
20 | RRIRKRPPRLPRPRPRPFTKPRP | -0.0833
21 | RRIRGRPPRLPRPRPRPQYDPRP | 0.101
22 | RRIRCRPPRLPRPRPRPSAWPRP | 0.0978
23 | RRIRKRPPRLPRPRPRPDHNPRP | -0.276
24 | RRIRLRPPRLPRPRPRPYVIPRP | -0.662
25 | RRIRVRPPRLPRPRPRPFDMPRP | -0.16

Row | Sequence | shrunken log2 fold change
26 | RRIRPRPPRLPRPRPRPICMPRP | -0.343
27 | RRIRSRPPRLPRPRPRPILIPRP | -0.384
28 | RRIRKRPPRLPRPRPRPWRSPRP | -0.0167
29 | RRIRKRPPRLPRPRPRPYEPPRP | -0.243
30 | RRIRRRPPRLPRPRPRPYKDPRP | -0.249
31 | RRIRFRPPRLPRPRPRPCRNPRP | -0.0376
32 | RRIRQRPPRLPRPRPRPHHDPRP | -0.000328
33 | RRIRFRPPRLPRPRPRPYHYPRP | -0.521
34 | RRIRRRPPRLPRPRPRPMCTPRP | 0.459
35 | RRIRNRPPRLPRPRPRPPAWPRP | 0.369
36 | RRIRGRPPRLPRPRPRPNISPRP | 0.231
37 | RRIRERPPRLPRPRPRPGMIPRP | -0.439
38 | RRIRYRPPRLPRPRPRPVRHPRP | -0.245
39 | RRIRGRPPRLPRPRPRPVWFPRP | 0.239
40 | RRIRHRPPRLPRPRPRPSKYPRP | -0.776
41 | RRIRHRPPRLPRPRPRPHVWPRP | 0.205
42 | RRIRARPPRLPRPRPRPYMVPRP | -0.583
43 | RRIRRRPPRLPRPRPRPFAFPRP | 0.0757
44 | RRIRMRPPRLPRPRPRPFFWPRP | 0.593
45 | RRIRFRPPRLPRPRPRPRFEPRP | 0.162
46 | RRIRGRPPRLPRPRPRPWSCPRP | 0.202
47 | RRIRKRPPRLPRPRPRPCDYPRP | -0.0336
48 | RRIRLRPPRLPRPRPRPYSWPRP | -0.176
49 | RRIRSRPPRLPRPRPRPRHRPRP | 0.121
50 | RRIRWRPPRLPRPRPRPEIFPRP | 0.0932

Row | Sequence | shrunken log2 fold change
51 | RRIRFRPPRLPRPRPRPCISPRP | -0.068
52 | RRIRKRPPRLPRPRPRPLYAPRP | 0.0609
53 | RRIRTRPPRLPRPRPRPGDTPRP | -0.0833
54 | RRIRYRPPRLPRPRPRPRECPRP | -0.154
55 | RRIRTRPPRLPRPRPRPDHSPRP | -0.0596
56 | RRIRKRPPRLPRPRPRPYACPRP | -0.0471
57 | RRIRTRPPRLPRPRPRPHCPPRP | -0.605
58 | RRIRQRPPRLPRPRPRPHLHPRP | -0.177
59 | RRIRVRPPRLPRPRPRPQGNPRP | 0.055
60 | RRIRKRPPRLPRPRPRPNTKPRP | -0.391
61 | RRIRCRPPRLPRPRPRPTRSPRP | 0.643
62 | RRIRPRPPRLPRPRPRPLVMPRP | 0.0377
63 | RRIRTRPPRLPRPRPRPDETPRP | 0.0482
64 | RRIRFRPPRLPRPRPRPTQNPRP | 0.541
65 | RRIRPRPPRLPRPRPRPMDAPRP | -0.128
66 | RRIRYRPPRLPRPRPRPLAQPRP | -0.17
67 | RRIRGRPPRLPRPRPRPHNAPRP | 0.0947
68 | RRIRIRPPRLPRPRPRPSPYPRP | -0.396
69 | RRIRNRPPRLPRPRPRPEPQPRP | 1
70 | RRIRVRPPRLPRPRPRPPFPPRP | 0.369
71 | RRIRCRPPRLPRPRPRPEFAPRP | 0.375
72 | RRIRWRPPRLPRPRPRPFWAPRP | 0.274
73 | RRIRQRPPRLPRPRPRPSYTPRP | -1.34
74 | RRIRMRPPRLPRPRPRPNLSPRP | -0.436
75 | RRIRARPPRLPRPRPRPLSVPRP | -0.0782

Row | Sequence | shrunken log2 fold change
76 | RRIRQRPPRLPRPRPRPLETPRP | 0.181
77 | RRIRLRPPRLPRPRPRPAMLPRP | -0.0377
78 | RRIRHRPPRLPRPRPRPCDTPRP | -0.214
79 | RRIRERPPRLPRPRPRPASAPRP | 0.33
80 | RRIRDRPPRLPRPRPRPMWYPRP | -0.0225
81 | RRIRGRPPRLPRPRPRPAMQPRP | 1.05
82 | RRIRPRPPRLPRPRPRPGTQPRP | 0.185
83 | RRIRFRPPRLPRPRPRPTARPRP | 0.336
84 | RRIRARPPRLPRPRPRPCPQPRP | -0.00027
85 | RRIRLRPPRLPRPRPRPQLKPRP | -0.0336
86 | RRIRKRPPRLPRPRPRPTARPRP | 0.508
87 | RRIRIRPPRLPRPRPRPPKRPRP | 0.0802
88 | RRIRTRPPRLPRPRPRPNFVPRP | 0.0615
89 | RRIRERPPRLPRPRPRPSYKPRP | -1.27
90 | RRIRARPPRLPRPRPRPQQVPRP | 0.0996
91 | RRIRDRPPRLPRPRPRPRIDPRP | 0.0784
92 | RRIRGRPPRLPRPRPRPATYPRP | 0.235
93 | RRIRYRPPRLPRPRPRPQVWPRP | -0.0375
94 | RRIRIRPPRLPRPRPRPLRLPRP | 0.281
95 | RRIRGRPPRLPRPRPRPKTGPRP | 0.692
96 | RRIRPRPPRLPRPRPRPAFTPRP | -0.0147
97 | RRIRHRPPRLPRPRPRPEPQPRP | 0.39
98 | RRIRIRPPRLPRPRPRPIIHPRP | -0.667
99 | RRIRQRPPRLPRPRPRPVMHPRP | -0.679
100 | RRIRRRPPRLPRPRPRPFVTPRP | -0.0614

Row | Sequence | shrunken log2 fold change
101 | RRIRARPPRLPRPRPRPCEEPRP | 0.622
102 | RRIRWRPPRLPRPRPRPMARPRP | 0.00968
103 | RRIRHRPPRLPRPRPRPNWKPRP | -0.0172
104 | RRIRNRPPRLPRPRPRPGFLPRP | -0.105
105 | RRIRKRPPRLPRPRPRPWQCPRP | -0.00136
106 | RRIRPRPPRLPRPRPRPWYWPRP | -0.161
107 | RRIRARPPRLPRPRPRPKIAPRP | 0.177
108 | RRIRNRPPRLPRPRPRPVEPPRP | 0.173
109 | RRIRRRPPRLPRPRPRPNNVPRP | -0.312
110 | RRIRARPPRLPRPRPRPCKPPRP | -0.331
111 | RRIRVRPPRLPRPRPRPCYVPRP | -0.0957
112 | RRIRIRPPRLPRPRPRPLDNPRP | 0.0097
113 | RRIRGRPPRLPRPRPRPENMPRP | 0.325
114 | RRIRFRPPRLPRPRPRPGMGPRP | 0.102
115 | RRIRERPPRLPRPRPRPTIMPRP | -0.959
116 | RRIRRRPPRLPRPRPRPRFHPRP | 0.0555
117 | RRIRDRPPRLPRPRPRPDAPPRP | 0.788
118 | RRIRERPPRLPRPRPRPCERPRP | -0.0138
119 | RRIRLRPPRLPRPRPRPVERPRP | -0.0146
120 | RRIRYRPPRLPRPRPRPAPMPRP | -0.0449
121 | RRIRDRPPRLPRPRPRPNNIPRP | -0.558
122 | RRIRVRPPRLPRPRPRPGAYPRP | -0.0376
123 | RRIRIRPPRLPRPRPRPQNAPRP | -0.297
124 | RRIRQRPPRLPRPRPRPSICPRP | -0.443
125 | RRIRIRPPRLPRPRPRPNEQPRP | 0.0369

Row | Sequence | shrunken log2 fold change
126 | RRIRQRPPRLPRPRPRPLSYPRP | 0.121
127 | RRIRKRPPRLPRPRPRPVTMPRP | -0.0185
128 | RRIRFRPPRLPRPRPRPQDWPRP | -0.12
129 | RRIRTRPPRLPRPRPRPPPQPRP | 0.848
130 | RRIRHRPPRLPRPRPRPVDKPRP | -0.308
131 | RRIRCRPPRLPRPRPRPRYIPRP | -0.035
132 | RRIRERPPRLPRPRPRPNSTPRP | -0.495
133 | RRIRVRPPRLPRPRPRPMLNPRP | -0.135
134 | RRIRYRPPRLPRPRPRPNGMPRP | -0.0465
135 | RRIRMRPPRLPRPRPRPDIMPRP | 2.19
136 | RRIRQRPPRLPRPRPRPWCTPRP | -0.244
137 | RRIRVRPPRLPRPRPRPEVRPRP | 0.0429
138 | RRIRWRPPRLPRPRPRPYNMPRP | -0.883
139 | RRIRMRPPRLPRPRPRPKFRPRP | 0.169
140 | RRIRRRPPRLPRPRPRPKVCPRP | 0.0559
141 | RRIRPRPPRLPRPRPRPVNVPRP | -0.326
142 | RRIRYRPPRLPRPRPRPSQIPRP | -0.766
143 | RRIRQRPPRLPRPRPRPKRSPRP | 0.0578
144 | RRIRMRPPRLPRPRPRPNIHPRP | -0.144
145 | RRIRGRPPRLPRPRPRPKGMPRP | 0.442
146 | RRIRWRPPRLPRPRPRPTSWPRP | 0.249
147 | RRIRYRPPRLPRPRPRPRLPPRP | -0.0393
148 | RRIRNRPPRLPRPRPRPRGAPRP | 0.601
149 | RRIRGRPPRLPRPRPRPDGPPRP | 0.155
150 | RRIRKRPPRLPRPRPRPVSWPRP | 0.821
